Literature values, collected in PMC3565385 (Journal of computer-aided molecular design, 2012).

Test system: PTH1R
Settings: ΔΔG = RT ln(Ki mutant/Ki wild-type) from published alanine scanning

B1: PTH R20A: parathyroid hormone with Arg20 replaced by alanine (peptide, UniProt P01270 32-115, looked up, variant R20A)
Parathyroid hormone: SVSEIQLMHNLGKHLNSMEAVEWLRKKLQDVHNFVALGAPLAPRDAGSQRPRKKEDNVLVESHEKSLGEADKADVNVLTKAKSQ
modifications: Parathyroid hormone
- experimental ΔΔG: 2.96 kcal/mol
